Assays:
[1] = biological target: T1, canine IL-13 (canine, UniProt Q9N0W9 19-131, limits assumed, biotin-labeled in the Octet assay (site not stated)); assay: BLI (Octet HTX), biotin-cIL-13 on SA biosensors, fusion protein in solution, 1:1 fit
T1 construct: Biotin-labeled and loaded on SA biosensors for the kinetics; unlabeled in the DH82 cell assay; also called cIL-13; canine Interleukin-13
T1 sequence (looked up): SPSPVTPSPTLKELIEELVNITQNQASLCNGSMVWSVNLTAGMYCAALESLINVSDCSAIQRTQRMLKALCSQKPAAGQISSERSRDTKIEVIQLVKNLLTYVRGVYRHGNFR
Procedure: (§1) The binding constants for the cFc fusion proteins provided in Tables 3 and 4 below, were determined using OCTET® HTX. All kinetics measurements were performed by OCTET® HTX using SA® biosensors and DATA ACQUISITION® 12.0 software. 10 μg/mL of biotin-labeled antigen, either canine IL-4 (cIL-4) or canine IL-13 (cIL-13) were loaded onto the SAR biosensors for 120 seconds. Next, the biosensors were placed into 1×pH 7.0 TBS/Casein buffer for 60 seconds for the blocking phase. For the association phase, antigen loaded biosensors were placed into 2-fold serial dilutions from 1 μM down to 15.6 nM of the wild-type, the bispecific, or the FcRn-mutant receptor Fc-fusions that recognized the cIL-4 or cIL-13 antigen in 1×pH 7.0 TBS/Casein buffer for 30 seconds. The last well was buffer alone and that sensor was used for reference sensor subtraction. Finally, the biosensors were placed into 1×pH 7.0 TBS/Casein buffer for 120 seconds for the dissociation phase. The results were then analyzed using Data Analysis 12.0 software and the curves were fitted using a 1:1 binding model.

[2] = biological target: T1, canine IL-13; assay: cell-based or functional assay
[3] = biological target: T1, canine IL-13; assay: BLI (Octet); summary table, rounded from Table 4
[4] = biological target: T1, canine IL-13; assay: cell-based or functional assay; remark: listed apart in the source
[5] = biological target: T2, canine IL-13 (cIL-13) (Canis lupus familiaris, UniProt Q9N0W9); assay: Binding kinetics of cFc fusion proteins to canine IL-13 (OCTET HTX); conditions: Table 4, cIL-13; for ka: association rate constant; for kdis: dissociation rate constant
T2 sequence (Q9N0W9 19-131): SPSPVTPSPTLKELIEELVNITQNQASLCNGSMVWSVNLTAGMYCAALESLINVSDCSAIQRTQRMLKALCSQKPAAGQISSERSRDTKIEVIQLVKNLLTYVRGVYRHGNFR
Procedure: as §1

[6] = tested on: cIL-13 mediated STAT6 phosphorylation; assay: Inhibition of cIL-13 mediated STAT6 phosphorylation in DH82 cells (AlphaLISA p-STAT6); type: cell-based, canine; conditions: for concentration inhibiting 50% of the cIL-13 mediated STAT6 phosphorylation (in words): DH82 cells
Procedure: The ability of the cFc fusion proteins to block the signaling mediated by IL-4 and IL-13, as measured by inhibition of STAT-6 phosphorylation in DH82 cells, were determined as follows:
• 1. Actively growing DH82 cells: Merck Animal Health Lot: 628-011, 24Oct14 • 2. HBSS, 1×: Corning, Catalog 21-022-CM • 3. AlphaLISA p-STAT6 (Tyr641) Assay Kit: Perkin Elmer, Catalog ALSU-PST6-A10K • 4. Recombinant canine IL-4: R&D Systems, Catalog: 752-CL/CF • 5a. cFc fusion protein samples for IL-4 studies • (i) cIL4Rα-cFc • (ii) cIL4Rα-IL13Rα1 ZW1-cFc • (iii) cIL4Rα-IL13Rα2 ZW1-cFc • 5b. cFc fusion protein samples for IL-13 studies: • (i) CIL13Rα1-cFc • (ii) cIL13Rα2-cFc • (iii) cIL4R-IL13Rα1 ZW1-cFc • (iv) cIL4R-IL13Rα2 ZW1-cFc • 6. Perkin Elmer® Envision
• 1. Tissue culture plates were seeded with […] DH82 cells per well (40 μL with the density of 2.5×10^5 cells/mL) and incubated at 37° C. for 2 hours. • 2. The cFc fusion proteins were pre-diluted to 2000 nM (500 nM final concentration in the well) and then 3-fold serially diluted in Hank's Balanced Salt Solution (HBSS). The proteins were added by transferring 20 μL/well to the respective locations on the tissue culture plates containing DH82 cells. • 3. (a) Canine IL-4 was diluted to 10 ng/ml in HBSS (2.5 ng/ml in the well) and 20 μL was added to each well of the plates. The plates were incubated for 15 min at 37° C.; or alternatively • (b) Canine IL-13 was diluted to 20 ng/ml in HBSS (5 ng/ml in the well) and 20 μL was added to each well of the plates. The plates were incubated for 15 min at 37° C. • 4. The plates were removed from the incubator and 20 μL of 4× Lysis buffer from the AlphaLISA® p-STAT-6 Assay Kit was added to each well of the plate. The plate was agitated on a plate shaker with 350 rpm for 10 minutes at room temperature. • 5. The Acceptor Mix was prepared from the AlphaLISA® p-STAT6 Assay Kit and 15 μL per well was added to 30 μL of the cell lysate in 96-well ½ Area Plates. The plates were sealed, agitated for 2 minutes at 350 rpm, and then incubated for 1 hour at room temperature. • 6. The Donor Mix was prepared from the AlphaLISA® p-STAT6 Assay kit under subdued laboratory lighting and 15 μL per well was added to each plate. The plates were sealed, covered with foil, agitated for 2 minutes at 350 rpm, and then incubated for 1 hour at room temperature. • 7. The plates were read using the AlphaScreen settings on the Perkin Elmer® En Vison.

[7] = biological target: T3, canine IL-4 (cIL-4) (Canis lupus familiaris, UniProt O77762); assay: Binding kinetics of cFc fusion proteins to canine IL-4 (OCTET HTX)
T3 sequence (O77762 25-132): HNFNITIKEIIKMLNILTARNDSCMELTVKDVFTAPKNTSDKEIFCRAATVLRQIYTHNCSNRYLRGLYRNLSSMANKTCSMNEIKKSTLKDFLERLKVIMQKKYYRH
Procedure: as §1

Molecule | Kd [1] [nM] | koff [1] [s⁻¹] | kon [1] [M⁻¹ s⁻¹] | IL-13 IC50 (inhibition of cIL-13 mediated STAT6 phosphorylation in DH82 cells) [2] [nM] | Kd [3] [nM] | IL-13 (IC50), summary table [4] [nM] | ka [5] [M⁻¹ s⁻¹] | kdis [5] [s⁻¹] | IC50 for cIL-13 mediated STAT6 phosphorylation, fold higher than for cIL-13Rα2-cFc [6] | concentration inhibiting 50% of the cIL-13 mediated STAT6 phosphorylation (in words) [6] | loss in affinity for cIL-4 (KD times higher) relative to unmodified cIL-4Rα-cFc homodimer [7] | ka ([7]; Table 3, association rate constant, cIL-4, ND = Binding Not Detected) [M⁻¹ s⁻¹] | kdis ([7]; Table 3, dissociation rate constant, cIL-4, ND = Binding Not Detected) [s⁻¹] | binding constant (KD) with cIL-4 ([7]; approximate values)
cIL-13Rα1-cIgGB-Fc (Fc fusion, Homodimer; also called cIL-13Rα1-cFc; cIL13Rα1-cFc) GGVAAPTETQPPVTNLSVSVENLCTVIWTWDPPEGASPNCTLRYFSHFDNKQDKKIAPETHRSKEVPLNERICLQVGSQCSTNESDNPSILVEKCTPPPEGDPESAVTELQCVWHNLSYMKCTWLPGRNTSPDTNYTLYYWHSSLGKILQCEDIYREGQHIGCSFALTNLKDSSFEQHSVQIVVKDNAGKIRPSFNIVPLTSHVKPDPPHIKRLFFQNGNLYVQWKNPQNFYSRCLSYQVEVNNSQTETNDIFYVEEAKCQNSEFEGNLEGTICFMVPGVLPDTLNTVRIRVRTNKLCYEDDKLWSNWSQAMSIGENTDPTPKRENGRVPRPPDCPKCPAPEMLGGPSVFIFPPKPKDTLLIARTPEVTCVVVDLDPEDPEVQISWFVDGKQMQTAKTQPREEQFNGTYRVVSVLPIGHQDWLKGKQFTCKVNNKALPSPIERTISKARGQAHQPSVYVLPPSREELSKNTVSLTCLIKDFFPPDIDVEWQSNGQQEPESKYRTTPPQLDEDGSYFLYSKLSVDKSRWQRGDTFICAVMHEALHNHYTQESLSHSPGK | 5.37 | 0.000312 | 58000 | 18.4 | 5 | 20 | – | – | – | – | – | – | – | –
cIL4Rα-IL13Rα1_ZW1-cFc: bispecific heterodimer of cIL-4Rα-cIgGB-Fc-ZW-A (SEQ ID NO: 18) and cIL-13Rα1-cIgGB-Fc-ZW-B (SEQ ID NO: 19) (protein, heterodimer) chain 1: VKVLHEPSCFSDYISTSVCQWKMDHPTNCSAELRLSYQLDFMGSENHTCVPENREDSVCVCSMPIDDAVEADVYQLDLWAGQQLLWSGSFQPSKHVKPRTPGNLTVHPNISHTWLLMWTNPYPTENHLHSELTYMVNVSNDNDPEDFKVYNVTYMGPTLRLAASTLKSGASYSARVRAWAQTYNSTWSDWSPSTTWLNYYEPWEQHLPPKRENGRVPRPPDCPKCPAPEMLGGPSVFIFPPKPKDTLLIARTPEVTCVVVDLDPEDPEVQISWFVDGKQMQTAKTQPREEQFNGTYRVVSVLPIGHQDWLKGKQFTCKVNNKALPSPIERTISKARGQAHQPSVYVYPPSREELSKNTVSLTCLIKDFFPPDIDVEWQSNGQQEPESKYRTTPPQLDEDGSYALVSKLSVDKSRWQRGDTFICAVMHEALHNHYTQESLSHSPGK chain 2: GGVAAPTETQPPVTNLSVSVENLCTVIWTWDPPEGASPNCTLRYFSHFDNKQDKKIAPETHRSKEVPLNERICLQVGSQCSTNESDNPSILVEKCTPPPEGDPESAVTELQCVWHNLSYMKCTWLPGRNTSPDTNYTLYYWHSSLGKILQCEDIYREGQHIGCSFALTNLKDSSFEQHSVQIVVKDNAGKIRPSFNIVPLTSHVKPDPPHIKRLFFQNGNLYVQWKNPQNFYSRCLSYQVEVNNSQTETNDIFYVEEAKCQNSEFEGNLEGTICFMVPGVLPDTLNTVRIRVRTNKLCYEDDKLWSNWSQAMSIGENTDPTPKRENGRVPRPPDCPKCPAPEMLGGPSVFIFPPKPKDTLLIARTPEVTCVVVDLDPEDPEVQISWFVDGKQMQTAKTQPREEQFNGTYRVVSVLPIGHQDWLKGKQFTCKVNNKALPSPIERTISKARGQAHQPSVYVLPPSREELSKNTVSLLCLIKDFFPPDIDVEWQSNGQQEPESKYLTWPPQLDEDGSYFLYSKLSVDKSRWQRGDTFICAVMHEALHNHYTQESLSHSPGK | – | – | – | – | – | – | 94400 | 3.91e-05 | about 20 fold | well above nanomolar concentrations | about 10,000 fold | 237000 | 0.00234 | –
cIL4Rα-IL13Rα2_ZW1-cFc: bispecific heterodimer of cIL-4Rα-cIgGB-Fc-ZW-A (SEQ ID NO: 18) and cIL-13Rα2-cIgGB-Fc-ZW-B (SEQ ID NO: 20) (protein, heterodimer) chain 1: VKVLHEPSCFSDYISTSVCQWKMDHPTNCSAELRLSYQLDFMGSENHTCVPENREDSVCVCSMPIDDAVEADVYQLDLWAGQQLLWSGSFQPSKHVKPRTPGNLTVHPNISHTWLLMWTNPYPTENHLHSELTYMVNVSNDNDPEDFKVYNVTYMGPTLRLAASTLKSGASYSARVRAWAQTYNSTWSDWSPSTTWLNYYEPWEQHLPPKRENGRVPRPPDCPKCPAPEMLGGPSVFIFPPKPKDTLLIARTPEVTCVVVDLDPEDPEVQISWFVDGKQMQTAKTQPREEQFNGTYRVVSVLPIGHQDWLKGKQFTCKVNNKALPSPIERTISKARGQAHQPSVYVYPPSREELSKNTVSLTCLIKDFFPPDIDVEWQSNGQQEPESKYRTTPPQLDEDGSYALVSKLSVDKSRWQRGDTFICAVMHEALHNHYTQESLSHSPGK chain 2: SMLSNAEIKVNPPQDFEIVDPGYLGYLSLQWQPPLFPDNFKECTIEYELKYRNIDSENWKTIITKNLHYKDGFDLNKGIEAKINTLLPAQCTNGSEVRSSWAETTYWTSPQGNRETKIQDMDCVYYNWQYLVCSWKPGMGVHFDTNYQLFYWYEGLDHSAECTDYIKVNGKNMGCRFPYLESSDYKDFYICVNGSSESQPIRPSYFIFQLQNIVKPMPPDYLSLTVKNSEEINLKWNMPKGPIPAKCFIYEIEFTEDGTTWVTTTVENEIQITRTSNESQKLCFLVRSKVNIYCSDDGIWSEWSDEQCWKGDIWKETPKRENGRVPRPPDCPKCPAPEMLGGPSVFIFPPKPKDTLLIARTPEVTCVVVDLDPEDPEVQISWFVDGKQMQTAKTQPREEQFNGTYRVVSVLPIGHQDWLKGKQFTCKVNNKALPSPIERTISKARGQAHQPSVYVLPPSREELSKNTVSLLCLIKDFFPPDIDVEWQSNGQQEPESKYLTWPPQLDEDGSYFLYSKLSVDKSRWQRGDTFICAVMHEALHNHYTQESLSHSPGK | – | – | – | – | – | – | 32600 | 0.000135 | about 200 fold | well above nanomolar concentrations | – | – | – | undetectable

Source: patent US20250325630A1, “HOMODIMER FUSION PROTEINS FOR TREATING ATOPIC DERMATITIS” (Intervet Inc., priority 2021, published 2025)
